Publication PMC4370744, “Expression and purification of functional human glycogen synthase-1:glycogenin-1 complex in insect cells” (Protein Expression and Purification, 2015)

Molecular target: T1, human glycogenin-1 (GN1), GST removed by PreScission protease (human, UniProt P46976 1-350, glycosylated (degree of glycosylation modest))
T1 construct: human glycogenin-1 (GN1), NM 004130; released from GST at the PreScission site; the introduction speaks of a complete full-length complex; Same construct as m2 after cleavage; source: Sf9, co-expressed with GYS1; purified with GYS1 (glutathione Sepharose, eluted by GST-tagged PreScission protease, Superdex 200)
T1 sequence (looked up): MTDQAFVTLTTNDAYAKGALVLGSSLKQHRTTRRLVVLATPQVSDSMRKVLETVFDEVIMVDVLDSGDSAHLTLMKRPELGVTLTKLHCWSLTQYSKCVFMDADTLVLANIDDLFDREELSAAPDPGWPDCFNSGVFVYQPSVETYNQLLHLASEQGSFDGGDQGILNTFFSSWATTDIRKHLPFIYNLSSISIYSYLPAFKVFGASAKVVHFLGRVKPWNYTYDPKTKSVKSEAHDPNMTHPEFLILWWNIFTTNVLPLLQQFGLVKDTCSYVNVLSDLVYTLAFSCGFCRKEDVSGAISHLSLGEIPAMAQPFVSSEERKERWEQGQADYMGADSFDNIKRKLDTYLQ
Test: SEC; analytical: purified GYS1:GN1 (5 ug) on Superdex 200 3.2/300, 20 mM TES pH 7.4, 150 mM KCl, 1 mM DTT; apparent MW against protein standards
Settings: both partners purified

B1: human muscle glycogen synthase (GYS1) (enzyme, UniProt P13807 1-737, looked up)
chain: MPLNRTLSMSSLPGLEDWEDEFDLENAVLFEVAWEVANKVGGIYTVLQTKAKVTGDEWGDNYFLVGPYTEQGVRTQVELLEAPTPALKRTLDSMNSKGCKVYFGRWLIEGGPLVVLLDVGASAWALERWKGELWDTCNIGVPWYDREANDAVLFGFLTTWFLGEFLAQSEEKPHVVAHFHEWLAGVGLCLCRARRLPVATIFTTHATLLGRYLCAGAVDFYNNLENFNVDKEAGERQIYHRYCMERAAAHCAHVFTTVSQITAIEAQHLLKRKPDIVTPNGLNVKKFSAMHEFQNLHAQSKARIQEFVRGHFYGHLDFNLDKTLYFFIAGRYEFSNKGADVFLEALARLNYLLRVNGSEQTVVAFFIMPARTNNFNVETLKGQAVRKQLWDTANTVKEKFGRKLYESLLVGSLPDMNKMLDKEDFTMMKRAIFATQRQSFPPVCTHNMLDDSSDPILTTIRRIGLFNSSADRVKVIFHPEFLSSTSPLLPVDYEEFVRGCHLGVFPSYYEPWGYTPAECTVMGIPSISTNLSGFGCFMEEHIADPSAYGIYILDRRFRSLDDSCSQLTSFLYSFCQQSRRQRIIQRNRTERLSDLLDWKYLGRYYMSARHMALSKAFPEHFTYEPNEADAAQGYRYPRPASVPPSPSLSRHSSPHQSEDEEDPRNGPLEEDGERYDEDEEAAKDRRNIRAPEWPRRASCTSSTSGSKRNSVDTATSSSLSTPSEPLSPTSSLGEERN
modifications: heavily phosphorylated: phospho-T54, T372, S412, S486, S641, S645, S647, S652, S653, S657, S710, S727 (LC-MS), S8/S11 (immunoblot); about 6 mol phosphate per mol total protein (GYS1 + GN1)
notes: human muscle glycogen synthase GYS1, NM 002103, UniProt P13807; no tag; the introduction speaks of a complete full-length complex; tryptic peptides up to residue 737 were found; the methods say only 'genes coding for human GYS1'; also called glycogen synthase-1; GYSb (native, phosphorylated form); source: Sf9, co-expressed with GST-tagged GN1 from a bicistronic pFastBac-Dual baculovirus; in …
  stoichiometry N: ~1 GYS1 per GN1 (printed as 4:4)
